Test results: the DeepSol protein solubility set

Assay: soluble on expression in E. coli; label from the status in PepcDB or PDB records

Sequence | soluble on expression in E. coli
MSLTPLPYECQKCVLQFFEANRRFKLVERCDSLKAADKAAPLHIYKLYMNPRVIRINRHRYTLGLLRHLPKDHVYYSPYINNVNLDGGAAYDMDQYGLKDPRCNEVLSPGDLKVESKEKINNMEDMTMEMLQFAMRDFIRPQGRMQVQQREDPESSSEDDEDEAEDLPAEGSDDEDDDPQEAQIRRILGDAYLPRARYSSSESEASESEDEPDIDPAVTDQLEAYTNPYSWREENEPAPYRFGIRFQRMNLDFRRDRETFHGIIEYLDYNKKMYDAMKYITEKLFGKRAHPIVIKTLELGDAGGVYRLPENFKVKVSNMRFGTEFGLLWDGLNSIFHESTLPFKSLHMPLEHDHPVIHATQRLVIGTEKMFGENFAWIPFLLKLPQKNVYMLHSPLFHHDYVQLIDNWIETPKSIGTCFTFGVKQYHATQSTLNLLGDHPMVVSKRMEGVDCTEFPHCFNIPLTYESELNVYGKKRTENLDPLEFMPHVSWCLVFEVMPIGSALPLED | not soluble
SASGYQFGSVDQVEGGSVQYTRKYLGTGNLNDLYVGIGATPFKNFSIGANASSLFGRFTHSRQVIFSTEAPYNPVHLSTLYLKAAKFDFGMQYHLLLKSDRSLVIGAVYSPRVKMHSELTQIKNQVQNGVVVESETQEYIKGMDYYTLPHTLGIGFSYEKKDKLLLGADVQYSKWKGEKFYKSDCKFQDRIRVSLGGEIIPDINAVGMWPKVRYRFGLHGENSYLKVPTKGGV | not soluble
MQWQELYRQRVCSADEAVVDSLKPGTKVVFGHAAAAPVRFSQAMYRQREKLENITVFHMLYFGDAPHLAPEMRSHVHPTLNFLEGNSRPASRDRRVDFIPCHFHEVPELFRQGFFPLDVAVVQVSTPNEEGYCSFGVSCDYTKAAAECAPVVVAEVNKQMPFIGGENLIHISKLTHIIEVDEPIAEVLPPAISDLELRIGQNCASLIKDGDTLQLGIGGIPDAVLRALEGHKDLGIHTEMFTDGVMRMIRKGIINGKKKTLHPEKVVTSLIFGSKELYDFVNNNPVIECYPGDYINNPDVIGKNDRMVSINSCLEMDLMGQAASESIGYEQFSGSGGQVDFLRGAKRSKGGISIMAFPSTAKKGTESRIVPILKEGACVTTGRNEVDYVVTEYGVARLRGATLRQRAEALTAIAHPDFRPALEEEIRRRFELEHHHHHH | soluble
MSHHRIIIIGAGAAGVGMAITLQEFNIKDVLIVEKGTIGHSFKHWPLSTKTITPSFTTNGFGMPDMNAIAKDTSPAFTFNEEHLSGKRYAEYLSLVATHYNLNVKTNTNVSRVTYIDGIYHVSTYYGVYTADYIFIATGDYSFPYHPFSYGLHYSEIQTFTQLKGDAFTIIGGNESAFDAAINLSQTGARISIYTSKTGLKKEDADPSIRLSPYTQQRLRNAIQEGALIEMHVGYQARKITYQNHSYKIHFDNGHIVHSHTEPIIATGFDVTQNPLIEQLFQVRQSEVQLTELDESTKFPNVFLIGATVRHQNAILCYIYKFRARFAVLARIVSLREGLPEDTSLIQSYRQKNMFLDDYSCCDVNCTCLEHHHHHH | not soluble
MAHSEEQAAVPCAFIRQNSGNSISLDFEPDTEYQFVEQLEERYKCAFCHSVLHNPHQTGCGHRFCQQCIRSLRELNSVPICPVDKEVIKPQEVFKDNCCKREVLNLHVYCKNAPGCNARIILGRFQDHLQHCSFQAVPCPNESCREAMLRKDVKEHLSAYCRFREEKCLYCKRDIVVTNLQDHEENSCPAYPVSCPNRCVQTIPRARVNEHLTVCPEAEQDCPFKHYGCTVKGKRGNLLEHERAALQDHMLLVLEKNYQLEQRISDLYQSLEQKESKIQQLAETVKKFEKELKQFTQMFGRNGTFLSNVQALTSHTDKSAWLEAQVRQLLQIVNQQPSRLDLRSLVDAVDSVKQRITQLEASDQRLVLLEGETSKHDAHINIHKAQLNKNEERFKQLEGACYSGKLIWKVTDYRVKKREAVEGHTVSVFSQPFYTSRCGYRLCARAYLNGDGSGKGTHLSLYFVVMRGEFDSLLQWPFRQRVTLMLLDQSGKKNHIVETFKADPNSSSFKRPDGEMNIASGCPRFVSHSTLENSKNTYIKDDTLFLKVAVDLTDLEDL | soluble
MGSELLDLSFLSEEEKDLILSVLQRDEEVRKADEKRIRRLKNELLEIKRKGAKRGSQHYSDRTCARCQESLGRLSPKTNTCRGCNHLVCRDCRIQESNGTWRCKVCAKEIEMKKATGDWFYDQKVNRFAYRTGSEIIRMSLRHKPAVSKR | soluble
MKRFLLLLCALLSFSALAAPKADLWPYWQQSNGVNQTSISHLEWQQLLDSYLVTRGDNTLFRYNQVSFADKTKLKQYIQRLASLNPLQYRQAEQYAYWVNLYNALTVHLILDNYPITSITKLGGLFSFGPWDQGVIIINGKSLTLNDIEHRILRPIWQDPRTHYAVNCASLGCPNLQTQAFTAENTQTLLESAAKTFINSKKGVSIEGDTAKISSIYEWFAVDFGGEKEVFNHIRKYAPQYNHFSGRVKYDYDWSLNQADLEHHHHHH | not soluble
MNLVTDQDLLDVVNFFNRPLHALIAEVSKTTSDLELVRSTTQGIENICLLLDLVGTECIKDASAAKTSVLEHHHHHH | not soluble
GMDVEIVEELSKMLAGRKAVTEEEIRRKAIRCALKIMGARLVGIDAELIEDVTCSLIDCPITLKSLHFSEKVKIGDVLFYHPHVIKPEKEDFEQAYFEYKQSKKFLDAFDIMREVTDRFFEGYEAEGRYMRKYTKDGRNYYAFFSTIDDTFEDVDIHLRMVDEVDGDYVVIVPTENELNPFLKFFKQYSEDAKRAGLKIWVVNPDEKTIDPFIGYPKDFRLLKGFKNPKAAALVSAYWRVTVTDLD | soluble
SLRKLRFTRSPYTSARLGQPVDASLLLCNGGRRRFRGQVRDAWPPSARAQPHTHDVDVAAGQRQQVHTALRPVRRGDQRAAMVTARSIGPLGLAGRQSSQSVPGLVRVLPPFLSRKHLPSRLAKLREIDGLLPTLIRGQGTEFDSLREYVVGDDVRSIDWRASARRADVMVRTWRPERDRRVVIVLDTGRMAAGRVGVDPTAADPAGWPRLDWSMDAALLLAALASRAGDHVDFLAHDRISRAGVFGASRSELLAQLVDAMAPLRPALIESDWHAMIATILRRTRRRSLVVLLTDLNATALDEGLLPVLPQLSARHHVLVAAVADPRVDQLAAGRSDAAAVYDAAAAERARNDRRAIASQLRRGGVDVIDAPPAEIAPGLADRYLAMKATGRL | not soluble
MGSDKIHHHHHHMGSLNMPPLDFDAQKTPHIADLRSPQCRNCDIVREIAFCADLSPDEVKRLATVRCHAALPASFTVFREGDEVDHVYSISAGAVKLYKLMPDGRRQIIGFLFSGDLFGLGIDGGYCYTAETITPTHLCRFTHRKLDSLIAEIPRLERRMFTMAVKDLVSAQDQMLLLGRKTAREKVATFLLRLSRRSIQMGLPPSPVALPMSRADIADYLGLTIETVSRTFTQLKRDGIIGLPASGHCIVNDWEALRELAEGG | not soluble
MKLVPDAFHPGYWGPLLSAHMPRTAYLPVSESFISALQRDSLNEADAERLQSDFSELIQGLSHAMDYLRTDHSTSEGFCPKLNGKLPYDAAWILGRHAPCCYTWNEAMMVLRASSRIHEPTRTSWQGSFCLVVQRWEQIHPANEFRCFISSCRVIAICQRHPDTPYPFLARERDRLVNAMVSFYETHVRPLHPAYAECILDCYLDDSQSVRTLGIDAWSDDALLLFEVSEMEALRAQAAAAFPGQHSDPDGHRQSEAPGEDATGATVSFRSVAQGFAAVPWGWSEKLPLELGDDFLRARIQRNASD | not soluble
GPLGSEVMGPVEAAPEYRVIVDANNLTVEIENELNIIHKFIRDKYSKRFPELESLVPNALDYIRTVKELGNSLDKCKNNENLQQILTNATIMVVSVTASTTQGQQLSEEELERLEEACDMALELNASKHRIYEYVESRMSFIAPNLSIIIGASTAAKIMGVAGGLTNLSKMPACNIMLLGAQRKTLSGFSSTSVLPHTGYIYHSDIVQSLPPDLRRKAARLVAAKCTLAARVDSFHESTEGKVGYELKDEIERKFDKWQE | soluble
MSLNTWNELTVHVNREAEEAVSNLLIETGSQGVAISDSADYLGQEDRFGELYPEVEQSDMIAITAYYPDTLDIEAVKADLADRLANFEGFGLATGSVNLDSQELVEEDWADNWKKYYEPARITHDLTIVPSWTDYEAKAGEKIIKMDPGMAFGTGTHPTTKMSLFALEQVLRGGETVIDVGTGSGVLSIASSLLGAKDIYAYDLDDVAVRVAQENIDMNPGTENIHVAAGDLLKGVQQEVDVIVANILADILIHLTDDAYRLVKDEGYLIMSGIISEKWDMVRESAEKAGFFLETHMVQGEWNACVFKKTDDISGVIGGEGHHHHHH | soluble
